Molecular target: Human PSMA (Prostate-Specific Membrane Antigen) (human) (UniProt Q04609)
Test: ELISA, human PSMA coated on plate, anti-human-IgG-HRP detection

Chain of Human PSMA (Prostate-Specific Membrane Antigen) (human) (Q04609 44-750 limits assumed): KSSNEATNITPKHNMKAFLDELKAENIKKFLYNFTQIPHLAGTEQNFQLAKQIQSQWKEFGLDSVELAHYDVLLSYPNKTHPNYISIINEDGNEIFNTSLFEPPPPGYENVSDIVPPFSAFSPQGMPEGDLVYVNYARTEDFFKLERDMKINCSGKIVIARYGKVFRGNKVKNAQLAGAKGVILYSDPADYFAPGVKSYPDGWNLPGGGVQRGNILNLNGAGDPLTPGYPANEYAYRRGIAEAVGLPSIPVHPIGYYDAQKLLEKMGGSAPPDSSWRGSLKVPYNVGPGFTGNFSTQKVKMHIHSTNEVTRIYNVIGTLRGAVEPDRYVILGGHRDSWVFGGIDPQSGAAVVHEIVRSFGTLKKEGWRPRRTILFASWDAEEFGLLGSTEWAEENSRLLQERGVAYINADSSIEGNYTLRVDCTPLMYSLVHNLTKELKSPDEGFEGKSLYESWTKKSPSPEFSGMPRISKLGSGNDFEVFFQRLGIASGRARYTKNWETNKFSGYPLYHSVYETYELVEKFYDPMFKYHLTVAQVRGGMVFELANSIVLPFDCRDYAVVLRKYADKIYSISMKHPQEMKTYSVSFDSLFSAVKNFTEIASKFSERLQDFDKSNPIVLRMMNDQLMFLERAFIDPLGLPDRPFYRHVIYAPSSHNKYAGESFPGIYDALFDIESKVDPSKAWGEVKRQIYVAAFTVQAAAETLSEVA

EC50: 0.271 nM
Substance: J591 (antibody)

From patent publication US20250186604A1, “ANTI-PSMA ANTIBODY CONJUGATES” (ADC THERAPEUTICS SA, priority 2023, published 2025)
